The source of these data is patent US20180036405A1 (Regeneron, published 2018).

Experiment [1] concerns the target T1, EGFR on A431 epidermoid carcinoma cells (human, UniProt P00533 25-1210). As to the kind of experiment: cell-based or functional assay.
Experiment [2] has as its target T2, human dimeric EGFR (EGFR.mFc) (human).
T2 construct: Soluble dimeric EGFR construct
As to the kind of experiment: SPR 37C, mAb captured by anti-human Fc, EGFR.mFc analyte. The method, then:
(§1) Different concentrations of human monomeric (EGFR.mmh; SEQ ID NO:386) and dimeric (EGFR.mFc; SEQ ID NO:387) proteins were injected over the anti-EGFR monoclonal antibody captured surface at a flow rate of 50 μI/min. Antibody-antigen association was monitored for 4-5 minutes while dissociation of antigen from the captured monoclonal antibody surface was monitored for 10 min. Kinetic association (kₐ) and dissociation (kd) rate constants were determined by processing and fitting the data to a 1:1 binding model using Scrubber 2.0 curve fitting software.

Experiment [3] has as its target T3, human monomeric EGFR (EGFR.mmh) (human, UniProt P00533 25-647).
T3 construct: Soluble monomeric EGFR construct
Nature of the experiment: SPR 37C, mAb captured by anti-human Fc, EGFR.mmh analyte. The method, then:
as §1

Experiment [4] deals with T1, EGFR on A431 epidermoid carcinoma cells. Nature of the experiment: cell-based or functional assay. This is another data set of the same source.

B1: H1H136P (antibody, human IgG1, V domains shown)
VH: EVQLVESGGGLVQPGGSLRLSCAASGFTFSSYDMSWVRQAPGKGLEWVSGISGSGDSTYYAGSVKGRFTISRDNSKNTLYLQMNSLRAEDTAVYYCAYDYSNYWDHYGMDVWGQGTTVTVSS
VL: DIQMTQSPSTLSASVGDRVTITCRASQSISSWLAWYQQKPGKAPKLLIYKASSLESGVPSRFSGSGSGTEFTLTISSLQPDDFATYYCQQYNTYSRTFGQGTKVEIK
notes: Human IgG1 Fc (H1H)
As to B1, the “ADCC EC50” value in experiment [1] worked out at 1.49e-09 Molar. In addition, the “Maximum Cell Killing (%)” value in experiment [1] was 27%. Further, the binding result in experiment [2] and in experiment [3] was “no binding” each time.

B2: H1H155P (antibody, human IgG1, V domains shown)
VH: QVQLVESGGGVVQPGRSLRLSCAASGFTFSIYGMHWVRQAPGKGLEWVTVISDDGSKKYYVDSVKGRFTLSRDNSKNTLYLQMNSLRAEDTAVYYCARDRITGTNWYGMDVWGQGTTVTVSS
VL: DIQMTQSPSSLSASVGDRVTITCRASQDISNYLAWFQQKPGKAPKSLIFAASSLQSGGPSKFSGSGSGTDFTLTISSLQPEDFATYYCQQYNRYPFTFGPGTKVDIK
notes: Human IgG1 Fc (H1H)
The term Kd denotes a measure of binding affinity in units of concentration. Low values mean higher affinity, high ones lower affinity. The term koff denotes a measure of how fast the partners let go of each other. Low values mean a long-lived complex, high ones a short-lived complex. One may read the kon as a measure of how fast the partners come together. Higher therefore signals faster complex formation. Regarding B2, in experiment [1], the “ADCC EC50” value is 1.67e-11 Molar and the “Maximum Cell Killing (%)” value stood at 30%. Also, in experiment [2], the Kd was determined as 0.321 nM, the koff was determined as 0.000106 s⁻¹, the kon was determined as 329000 M⁻¹ s⁻¹ and the t1/2 stood at 1.82 h. In experiment [3], this molecule yielded a Kd of 0.962 nM, a dissociation rate constant (koff) of 0.000169 s⁻¹, an on-rate constant (kon) of 176000 M⁻¹ s⁻¹ and a t1/2 of 1.13 h.

B3: H1H145P (antibody, human IgG1, V domains shown)
VH: EVQLVESGGGVVQPGGSLRLSCAASGFTFDDYAMHWVRQAPGKGLEWVSLISGDGGSTYYADSVKGRFTISRDNSKNSLYLQMNSLRTEDTALYYCAKNYDSSGYYYPYYYYYGMDVWGQGTTVTVSS
VL: not shown
notes: Human IgG1 Fc (H1H)
For the molecule B3, the “Maximum Cell Killing (%)” value in experiment [1] worked out at 0%. Besides, in experiment [2], the Kd amounted to 0.232 nM, the koff stood at 5.86e-05 s⁻¹, the kon was 252000 M⁻¹ s⁻¹ and the t1/2 amounted to 3.28 h. In experiment [3], this molecule gave a Kd of 1.43 nM, a koff of 0.000195 s⁻¹, a kon of 137000 M⁻¹ s⁻¹ and a t1/2 of 0.983 h.

B4: H1H161P (antibody, human IgG1, V domains shown)
VH: QVQLVESGGGVVQPGRSLRLSCAASGFTFSNYGMYWVRQAPGKGLEWVTFISYDGSNKNYVDSMKGRFTISRDNSKNTLYLQMNSLRVEDTAVYYCAKDRISGTPWYGMDVWGQGTTVTVSS
VL: DIQMTQSPSSLSASVGDRVTITCRASQDIADYLAWFQQKPGKAPKSLIFAASSLESWVPLKFSGSGSGTDFTLTISSLQPEDFATYYCQQYSRFPITFGQGTKVEIK
notes: Human IgG1 Fc (H1H)
Consider B4, for which, in experiment [1], the “ADCC EC50” value worked out at 9.8e-12 Molar and the “Maximum Cell Killing (%)” value worked out at 38%. In addition, in experiment [2], the affinity, expressed as Kd, was 0.00159 nM; the koff was 2.76e-06 s⁻¹; the on-rate (kon) amounted to 1.73e+06 M⁻¹ s⁻¹; the t1/2 amounted to 69.8 h. In experiment [3], the Kd came out at 0.655 nM, the dissociation rate constant (koff) was 0.000321 s⁻¹, the kon was determined as 489000 M⁻¹ s⁻¹ and the t1/2 worked out at 0.6 h.

B5: H1H163P (antibody, human IgG1, V domains shown)
VH: QVQLVESGGGVVQPGRSLRLSCAASGFTFSNYGMHWVRQAPGKGLEWVTLIEHDGSNKNYVDSVKGRFTISRDNSKNTLYLQMNSLRVEDTAVYYCAKDRITGTPWYGMDVWGQGTTVTVSS
VL: DIQMTQSPSSLSASVGDRVTITCRASQDIADYLAWFQQKPGKAPKSLIFAASSLESWVPLKFSGSGSGTDFTLTISSLQPEDFATYYCQQYNRFPITFGQGTRLEIK
notes: Human IgG1 Fc (H1H)
For B5, in experiment [1], the “ADCC EC50” value was 2.96e-10 Molar and the “Maximum Cell Killing (%)” value worked out at 48%. Also, in experiment [2], the dissociation constant Kd was found to be 0.00117 nM, the koff came to 2.12e-06 s⁻¹, the kon was 1.81e+06 M⁻¹ s⁻¹ and the t1/2 is 90.8 h. Besides, in experiment [3], binding was put at a Kd of 0.834 nM, the koff was 0.000426 s⁻¹, the kon is 511000 M⁻¹ s⁻¹ and the t1/2 was determined as 0.45 h.

B6: H1H151P (antibody, human IgG1, V domains shown)
VH: QVQLQESGPGLVNPSQTLSLTCTVSGGSINSGDYYWSWVRQHPGKGLEWIGYIYYSGSTYYNPSLKSRVTISVDTSKNQFSLKLSSVTVADTAVYYCARVGYSKGYFDSWGQGTLVTVSS
VL: DIQMTQSPSTLSASVGDRVTITCRASESISSWLAWYQQKPGKAPKVLIYDASSLESGVPSRFSGSGSGTEYTLTISSLQPDDFASYYCQQYKSYWTFGQGTKVEIK
notes: Human IgG1 Fc (H1H)
As to B6, the “IC50 of A431 Proliferation” value in experiment [4] was 2.77e-10 Molar. Also, in experiment [1], the “ADCC EC50” value is 5.48e-09 Molar and the “Maximum Cell Killing (%)” value came to 68%. In experiment [3], this molecule showed a dissociation constant Kd of 8.4 nM, an off-rate constant (koff) of 0.00113 s⁻¹, an on-rate constant (kon) of 134000 M⁻¹ s⁻¹ and a t1/2 of 0.167 h.

B7: H1H153P (antibody, human IgG1, V domains shown)
VH: QVQLVESGGGVVQPGKSLRLSCAASGFTFSIYGMNWVRQAPGKGLDWVAVISDDGSNKDYVDSVRGRFTISRDNSKNTLYLQMNSLSAEDTAVYYCAKDRITGTHYYGLDVWGQGTTVTVSS
VL: DIQMTQSPSSLSASVGDRITITCRASQDIANYLAWFQQKPGNAPTSLIYAASILQSGVPSKFSGSGSGTDFTLTITSLQPEDFASYYCQQYNRKPWTFGRGTKVEIK
notes: Human IgG1 Fc (H1H)
Turning to B7, in experiment [1], the “ADCC EC50” value stood at 2.65e-11 Molar and the “Maximum Cell Killing (%)” value amounted to 31%. In experiment [2], the Kd amounted to 0.0351 nM, the dissociation rate constant (koff) worked out at 8.23e-06 s⁻¹, the kon is 234000 M⁻¹ s⁻¹ and the t1/2 stood at 23.4 h. In experiment [3], the equilibrium dissociation constant (Kd) is 3.09 nM, the dissociation rate constant (koff) is 0.000235 s⁻¹, the on-rate constant (kon) turned out to be 76100 M⁻¹ s⁻¹ and the t1/2 worked out at 0.817 h.

B8: H1H171P (antibody, human IgG1, V domains shown)
VH: QVQLVESGGGVVQPGRSLRLSCAASGFTFSIYGMNWVRQGPGKGLDWVAVISDDGSNKDYVDSVRGRFTISRDNSKNTLYLQMNSLSAEDTAVYYCAKDRITGTHYYGMDVWGQGTTVTVSS
VL: DIQMTQSPSSLSASVGDRITITCRASQDIANYLAWFQQKPGNAPTSLIYAASILQSGVPSKFSGSGSGTDFTLTITSLQPEDFASYYCQQYNRKPWTFGRGTKVEIK
notes: Human IgG1 Fc (H1H)
For the molecule B8, in experiment [1], the “ADCC EC50” value came out at 8.94e-13 Molar and the “Maximum Cell Killing (%)” value was 27%. In experiment [2], the Kd came to 0.103 nM, the off-rate (koff) stood at 3.48e-05 s⁻¹, the kon amounted to 339000 M⁻¹ s⁻¹ and the t1/2 amounted to 5.53 h. In experiment [3], the Kd was determined as 14.2 nM, the koff came out at 0.00113 s⁻¹, the on-rate (kon) was 79400 M⁻¹ s⁻¹ and the t1/2 came out at 0.167 h.

B9: H1H157P (antibody, human IgG1, V domains shown)
VH: QVQLVESGGGVVQPGRSLRLTCKASGFTFSIYGINWVRQASGKGLDWVAVISDDGSDKKYADSVKGRFTISRDNSKNTVYLEMSRLRSEDTAVYFCAKDRFTGNHYYGMDVWGQGTTVTVSS
VL: DIQMTQSPSSLSASVGDRVSITCRASQDISDYLAWFQQKPGKAPKSLIYAASILQNGVPSRFSGSGSGTDFTLTISSLQPEDFALYYCHQYNRFPWTFGQGTKVEIK
notes: Human IgG1 Fc (H1H)
As for B9, in experiment [1], the “ADCC EC50” value came out at 2.27e-13 Molar and the “Maximum Cell Killing (%)” value was determined as 36%. For the same molecule, in experiment [2], the binding result is “no binding”. The binding result in experiment [3] is “no binding”.

B10: H1H158P (antibody, human IgG1, V domains shown)
VH: QVQLVESGGGVVQPGGSLRLSCAASGFTFSIYGIHWVRQAPGKGLEWVAVISDDGSNKKYADSVKGRFTISRDNSKNTLYLQMNSLRAEDTAIFYCAKDRITGTHYYGMDVWGQGTTVTVSS
VL: DIQMTQSPSSLSASVGDRVSITCRASQDISNYLAWFQQKPGKAPKSLIYAASSLQSGVPSKFSGSGSGIEFTLTISSLQPEDFSTYYCHQYNRFPWTFGQGTKVEIK
notes: Human IgG1 Fc (H1H)
For the molecule B10, in experiment [1], the “ADCC EC50” value is 2.32e-12 Molar and the “Maximum Cell Killing (%)” value is 28%. Moreover, in experiment [2], the equilibrium dissociation constant (Kd) amounted to 0.0241 nM, the off-rate constant (koff) turned out to be 9.84e-06 s⁻¹, the kon is 408000 M⁻¹ s⁻¹ and the t1/2 was 19.6 h. In experiment [3], this molecule had a Kd of 5.9 nM, a koff of 0.000773 s⁻¹, a kon of 131000 M⁻¹ s⁻¹ and a t1/2 of 0.25 h.

B11: H1H159P (antibody, human IgG1, V domains shown)
VH: EVQLVESGGGLVQPGGSLRLSCAASRFTFTNYWMSWVRQAPGKGLEWVAKIKQDGSEKYYLDSVKDRFTISRDNAKNSLYLQMNSLRAEDTAVYYCASSSSWYDYYYGMDVWGHGTTVTVSS
VL: EIVLTQSPDFQSVTPKEKVTITCRASQSIGTNLHWYQQRPDQSPKLLIKFASQSFSGVPSRFSGSGSGTDFTLTINSLEAEDAATYYCHQTNFLPHTFGGGTKVEIKR
notes: Human IgG1 Fc (H1H)
As to B11, in experiment [1], the “ADCC EC50” value was found to be 2.69e-09 Molar and the “Maximum Cell Killing (%)” value came to 60%. In experiment [2], this molecule gave a Kd of 0.00344 nM, a koff of 5.63e-06 s⁻¹, an on-rate (kon) of 1.64e+06 M⁻¹ s⁻¹ and a t1/2 of 34.2 h. In experiment [3], this molecule showed a Kd of 0.682 nM, a koff of 0.000325 s⁻¹, a kon of 476000 M⁻¹ s⁻¹ and a t1/2 of 0.6 h.

B12: H1H169P (antibody, human IgG1, V domains shown)
VH: EVQLVESGGGLVQPGGSLRLSCAASRFTFSTYWMSWVRQAPGKGLEWVAKIKQDGSEKYYLDSVKDRFTISRDNAKNSLYLQMNSLRAEDTAVYYCASSITWYDYYYGMDVWGHGTTVTVSS
VL: EIVLTQSPDFQSVTPKEKVTITCRASQSIGSNLHWYQQKPDQSPNLLIKFASQSFSGVPSRFSGSGSGTDFTLTINSLEAEDAATYYCHQTNFLPHTFGGGTKVEIK
notes: Human IgG1 Fc (H1H)
As for B12, in experiment [1], the “ADCC EC50” value amounted to 4.81e-09 Molar and the “Maximum Cell Killing (%)” value is 27%. In experiment [2], this molecule displayed a Kd of 0.00736 nM, a dissociation rate constant (koff) of 1.69e-05 s⁻¹, a kon of 2.29e+06 M⁻¹ s⁻¹ and a t1/2 of 11.4 h. In experiment [3], this molecule displayed a dissociation constant Kd of 1.31 nM, an off-rate constant (koff) of 0.000869 s⁻¹, an on-rate (kon) of 665000 M⁻¹ s⁻¹ and a t1/2 of 0.217 h.
